Numbering of substitutions follows the chain as printed. Read-outs that look alike come from different tables or passages of the source.
What was measured:
[1] = target: γ-globulin formulation (KAKETSUKEN) that was a human antibody (human); assay: batch adsorption: 0.5 mL of 10 mg/mL IgG on 0.1 mL FcRm19-immobilised gel, PBS pH 7.0, eluted at pH 3.0, A280
[2] = target: γ-globulin formulation (KAKETSUKEN) that was a human antibody (human); assay: batch adsorption: 0.5 mL of 10 mg/mL IgG on 0.1 mL FcRm19-immobilised gel (23.0 mg FcRm19 per mL gel), PBS pH 7.0, eluted at pH 3.0, A280
[3] = target: γ-globulin formulation (KAKETSUKEN) that was a human antibody (human); assay: column of FcRm19-immobilised gel loaded with IgG in PBS pH 7.0; eluted with 100 mM citric acid buffer of the given pH; R=A/(A+B)x100, A280
[4] = target: γ-globulin formulation (KAKETSUKEN) that was a human antibody (human); assay: ELISA: human γ-globulin coated 1 µg/well, culture supernatant diluted 5x, HRP anti-His-Tag detection
[5] = target: γ-globulin formulation (KAKETSUKEN) that was a human antibody (human); assay: as above; remark: listed apart in the source
[6] = target: γ-globulin formulation (KAKETSUKEN) that was a human antibody (human); assay: batch adsorption: 0.5 mL of 10 mg/mL IgG on 0.05 mL FcRm48-immobilised gel, PBS pH 7.0, eluted at pH 3.0, A280
[7] = target: γ-globulin formulation (KAKETSUKEN) that was a human antibody (human); assay: batch adsorption: 0.5 mL of 10 mg/mL IgG on 0.05 mL FcRm48-immobilised gel (13.6 mg FcRm48 per mL gel), PBS pH 7.0, eluted at pH 3.0, A280
[8] = target: γ-globulin formulation (KAKETSUKEN) that was a human antibody (human); assay: column of FcRm48-immobilised gel loaded with IgG in PBS pH 7.0; eluted with 100 mM citric acid buffer of the given pH; R=A/(A+B)x100, A280
[9] = target: γ-globulin formulation (KAKETSUKEN) that was a human antibody (human); assay: batch adsorption: 3.0 mL of 10 mg/mL IgG on 0.5 mL FcRm56b-immobilised gel, PBS pH 7.0, eluted at pH 3.0, A280
[10] = target: γ-globulin formulation (KAKETSUKEN) that was a human antibody (human); assay: batch adsorption: 3.0 mL of 10 mg/mL IgG on 0.5 mL FcRm56b-immobilised gel (18.7 mg FcRm56b per mL gel), PBS pH 7.0, eluted at pH 3.0, A280
[11] = target: γ-globulin formulation (KAKETSUKEN) that was a human antibody (human); assay: column of FcRm56b-immobilised gel loaded with IgG in PBS pH 7.0; eluted with 100 mM citric acid buffer of the given pH; R=A/(A+B)x100, A280
[12] = target: γ-globulin formulation (KAKETSUKEN) that was a human antibody (human); assay: batch adsorption: 3.0 mL of 10 mg/mL IgG on 0.4 mL FcRm57b-immobilised gel, PBS pH 7.0, eluted at pH 3.0, A280
[13] = target: γ-globulin formulation (KAKETSUKEN) that was a human antibody (human); assay: batch adsorption: 3.0 mL of 10 mg/mL IgG on 0.4 mL FcRm57b-immobilised gel (14.2 mg FcRm57b per mL gel), PBS pH 7.0, eluted at pH 3.0, A280
[14] = target: γ-globulin formulation (KAKETSUKEN) that was a human antibody (human); assay: column of FcRm57b-immobilised gel loaded with IgG in PBS pH 7.0; eluted with 100 mM citric acid buffer of the given pH; R=A/(A+B)x100, A280
[15] = target: γ-globulin formulation (KAKETSUKEN) that was a human antibody (human); assay: batch adsorption: 0.5 mL of 10 mg/mL IgG on 0.1 mL FcRm32-immobilised gel, PBS pH 7.0, eluted at pH 3.0, A280
[16] = target: γ-globulin formulation (KAKETSUKEN) that was a human antibody (human); assay: batch adsorption: 0.5 mL of 10 mg/mL IgG on 0.1 mL FcRm32-immobilised gel (19.3 mg FcRm32 per mL gel), PBS pH 7.0, eluted at pH 3.0, A280
[17] = target: γ-globulin formulation (KAKETSUKEN) that was a human antibody (human); assay: column of FcRm32-immobilised gel loaded with IgG in PBS pH 7.0; eluted with 100 mM citric acid buffer of the given pH; R=A/(A+B)x100, A280
[18] = target: γ-globulin formulation (KAKETSUKEN) that was a human antibody (human); assay: batch adsorption: 0.5 mL of 10 mg/mL IgG on 0.05 mL FcRm36b-immobilised gel, PBS pH 7.0, eluted at pH 3.0, A280
[19] = target: γ-globulin formulation (KAKETSUKEN) that was a human antibody (human); assay: column of FcRm36b-immobilised gel loaded with IgG in PBS pH 7.0; eluted with 100 mM citric acid buffer of the given pH; R=A/(A+B)x100, A280
[20] = target: γ-globulin formulation (KAKETSUKEN) that was a human antibody (human); assay: batch adsorption: 0.5 mL of 10 mg/mL IgG on 0.05 mL FcRm36b-immobilised gel (21.0 mg FcRm36b per mL gel), PBS pH 7.0, eluted at pH 3.0, A280

B1: Fc binding protein FcRm19 (19 amino acids of a wild-type Fc binding protein substituted) (receptor)
chain: KIEEAMGQVDTPKAVIKLQPPWVSVFQEESVTLHCEVPHLPGSSSTQWFLNGTAIQTSTPTYHITSASEDDSGEYRCQRGLSGRSDPIQLEVHRGWLLLQVSSRVLTEGEPLALRCHAWKDKLVYNVLYYRNGKAFKFFHWNSNLTILKTNMSHSGTYHCSGMGKHRYTSAGISVTVKELFPAPVLTASVTSPLLEGTPVTLSCETKLLLQRPGLQLYFSFYMGSKTLRGRDTSSEYQILTARREDSGLYWCEAATEDGNVLKRSPELELQVLGHQQPTPVHHHHHH
[1]
  amount of the eluted IgG: 2.1 mg
[2]
  amount of adsorbed IgG per mL of the gel (mg per mL of gel): 21
[3]
  percentage of antibody elution at pH 3.0: 99.1%
  percentage of antibody elution at pH 3.4: 87.4%
  percentage of antibody elution at pH 3.8: 51.3%
  percentage of antibody elution at pH 4.2: 22%

B2: wild-type Fc binding protein (Fc binding protein with no amino acid substitution) expressed by the pETFcR transformant (receptor)
chain: KIEEAMGQVDTTKAVITLQPPWVSVFQEETVTLHCEVLHLPGSSSTQWFLNGTATQTSTPSYRITSASVNDSGEYRCQRGLSGRSDPIQLEIHRGWLLLQVSSRVFTEGEPLALRCHAWKDKLVYNVLYYRNGKAFKFFHWNSNLTILKTNISHNGTYHCSGMGKHRYTSAGISVTVKELFPAPVLNASVTSPLLEGNLVTLSCETKLLLQRPGLQLYFSFYMGSKTLRGRNTSSEYQILTARREDSGLYWCEAATEDGNVLKRSPELELQVLGLQLPTPVHHHHHH
[4]
  OD450 nm: 0.22 OD450 nm
[5]
  OD450 nm: 0.14 OD450 nm

B3: Fc binding protein FcRm48 (48 amino acids of a wild-type Fc binding protein substituted) (receptor)
chain: KIEEAMGQVDTPKAVIKLQPPWVSVFLGESVTMHCEAPHLSGTGSTQWFLNDTAIQASTPTYHITSASEDDSGEYRCQRGLSGRSDPILLEVHRGWLLLQVSSRVLTEGEPLALRCHAWRDKQVHNVLFYHNGKAFKFFHRNSTLTIPRTNTSHSGTYHCSGMGRHRYTSAGTLVSVKELFPAPVLTASVTSPLHEGTQVTLSCVTKLLIQRPGLQLYFSFYKGSKTLRGRDTSSEYQILAARREDSGLYWCVAATEDGNVLKRSPELELQVLGHQQPTPVHHHHHH
[6]
  amount of eluted IgG: 0.94 mg
[7]
  amount of adsorbed IgG per mL of the gel (mg per mL of gel): 18.8
[8]
  percentage of antibody elution at pH 3.0: 99.2%
  percentage of antibody elution at pH 3.4: 100%
  percentage of antibody elution at pH 3.8: 98.2%
  percentage of antibody elution at pH 4.2: 81.9%

B4: Fc binding protein FcRm56b (56 amino acids of a wild-type Fc binding protein substituted) (receptor)
chain: KIEEAMGQVDTPKAVIKLQPPWVSVFLGESVTMLCEVPHLSGAGSTQWFRNDTAIQASTPTYHIASASEDDSGEYRCQRGLSGRSDPILLEVHRGWLLLQVSARVLIEGEPLVLRCHAWRDKQVHNVLFYHNGKAFKFFHRNTTLTIPRTNTSHSGTYHCSGMGRHRYTSAGTLVSVKELFPAPVLTASVASPLHEGTQVTLSCVTKLLIQRPGLQLYFSFYKGSETLRGRDTSSEYQILAARREDSGLYWCEAATEDGNVVKRSPELELQVLGHQQPTPVHHHHHH
[9]
  amount of eluted IgG: 11.5 mg
[10]
  amount of adsorbed IgG per mL of the gel (mg per mL of gel): 23
[11]
  percentage of antibody elution at pH 3.0: 99.7%
  percentage of antibody elution at pH 3.4: 99.5%
  percentage of antibody elution at pH 3.8: 94.5%
  percentage of antibody elution at pH 4.2: 73%

B5: Fc binding protein FcRm57b (57 amino acids of a wild-type Fc binding protein substituted) (receptor)
chain: B4 chain with Y62F, Q123L, H195L, Q199P, Y222F, S225G
[12]
  amount of eluted IgG: 6.67 mg
[13]
  amount of adsorbed IgG per mL of the gel (mg per mL of gel): 16.7
[14]
  percentage of antibody elution at pH 3.0: 99.3%
  percentage of antibody elution at pH 3.4: 99.6%
  percentage of antibody elution at pH 3.8: 90.2%
  percentage of antibody elution at pH 4.2: 66.2%

B6: Fc binding protein FcRm32 (32 amino acids of a wild-type Fc binding protein substituted) (receptor)
chain: KIEEAMGQVDTPKAVIKLQPPWVSVFQGESVTLHCEAPHLSGSSSTQWFLNDTAIQASTPTYHITSASEDDSGEYRCQRGLSGRSDPIQLEVHRGWLLLQVSSRVLTEGEPLALRCHAWKDKLVHNVLYYHNGKAFKFFHRNSNLTIPKTNTSHSGTYHCSGMGRHRYTSAGTSVTVKELFPAPVLTASVTSPLHEGTQVTLSCETKLLLQRPGLQLYFSFYKGSKTLRGRDTSSEYQILTARREDSGLYWCEAATEDGNVLKRSPELELQVLGHQQPTPVHHHHHH
[15]
  amount of eluted IgG: 1.98 mg
[16]
  amount of adsorbed IgG per mL of the gel (mg per mL of gel): 19.8
[17]
  percentage of antibody elution at pH 3.0: 98.7%
  percentage of antibody elution at pH 3.4: 99.3%
  percentage of antibody elution at pH 3.8: 97.9%
  percentage of antibody elution at pH 4.2: 82.8%

B7: Fc binding protein FcRm36b (36 amino acids of a wild-type Fc binding protein substituted) (receptor)
chain: B6 chain with Q27L, L33M, S44G, N144T
[18]
  amount of eluted IgG: 1.44 mg
[19]
  percentage of antibody elution at pH 3.0: 99.5%
  percentage of antibody elution at pH 3.4: 99.4%
  percentage of antibody elution at pH 3.8: 92.2%
  percentage of antibody elution at pH 4.2: 64%
[20]
  amount of adsorbed IgG per mL of the gel (mg per mL of gel): 28.8
